Source: patent US20100260765A1 (AstraZeneca / MedImmune, published 2010)
Where a chain is given by its changes, count along the chain named.

B1: anti-KDR monoclonal antibody 21H6 (antibody, V domains shown)
VH: QVQLVESGGGLVKPGGSLRLSCAASGFTFSDYYMSWIRQAPGKGLEWVSYISNSGITIYYADSVKGRFTISRDNAKNSLYLQMNSLRAGDTAVYYCAREEWYSSRWYRNFDYWGQGTLVTVSS
VL: DIQMTQFSSSLSASVGDRVTITCRASQSISRYLNWYQQKPGKAPKLLIYAASSLQSGVPSRFNGSGSGTDFTLTISSLQPEDFATYYCQQSYSAPLTFGGGTKVEIK
notes: Fully human mAb from XenoMouse; hybridoma supernatant
B2: anti-KDR monoclonal antibody 21A1 (antibody, V domains shown)
VH: B1 VH
VL: B1 VL
notes: Fully human mAb from XenoMouse (IgG2 or IgG4 strain); hybridoma supernatant
B3: anti-KDR monoclonal antibody 24B3 (antibody, V domains shown)
VH: EVQLVESGGGLVKPGGSLRLSCAASGFTFSTYSMNWVRQAPGKGLEWVSFISGRSSYIYYADSVKGRFTISRDNAKNSLYLQMNSLRAEDTAVYYCSKDDWFEELWGQGTLVTVSS
VL: DIQMTQSPSSLSASVGDRVTITCRASQGIRSDLGWYQQKPGKAPKRLIYATSSLQSGVPSRFSGSGSGTEFTLTISSLQPEDFATYYCLQHNRYPWTFGQGTKVEIK
notes: as for B2
B4: anti-KDR monoclonal antibody 30H10 (antibody, V domains shown)
VH: EVQLLESGGGLVQPGGSLRLSCAASGFTFSNYAMSWVRQAPGKGLEWVSAISGSGGITYYADSVKGRFTISRDNSKNTLFLQMNSLRAEDTAVYYCAKASGDNWGQGTLVSVSS
VL: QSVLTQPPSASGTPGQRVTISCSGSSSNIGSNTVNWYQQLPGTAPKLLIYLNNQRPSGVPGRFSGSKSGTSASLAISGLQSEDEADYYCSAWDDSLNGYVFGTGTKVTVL
notes: as for B2
B5: anti-KDR monoclonal antibody 32C11 (antibody, V domains shown)
VH: B4 VH with G10T, S54R, G55A, I57S, N103D, S111T
VL: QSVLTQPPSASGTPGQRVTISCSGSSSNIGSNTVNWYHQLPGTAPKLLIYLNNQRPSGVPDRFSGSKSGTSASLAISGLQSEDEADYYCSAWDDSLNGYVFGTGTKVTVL
notes: as for B2
B6: anti-KDR monoclonal antibody 30F6 (antibody, V domains shown)
VH: QVQLVESGGGVVQPGRSLRLSCAASGFTFSTYGMHWVRQAPGKGLEWVAVIWYDGSNKYYADSVKGRFTISRDNSKNTLYLQMNSLRAEDTAVYYCACSYWNDDYYYGMDVWGQGTTVTVSS
VL: DIQMTQSPSSLSASVGDRVIITCRASQNISSYLIWYQQKPGKAPNLLIHTTSSLQRGVPSRFSGSGSGTDFTLTISSLQPEDFATYYCQQSYSAPLTFGGGTKVEIK
notes: as for B2
B7: anti-KDR monoclonal antibody 21H9 (antibody, V domains shown)
VH: QVPLVESGGGVVQPGRSLRLSCAASGFTFSSYGMHWVRQAPGKGLEWVAVIWYDGSNKYYADSVQGRFTISRDNSKNTLYLQMNSLRAEDTAVYYCARGVTMVRGLIIARYYYGLDVWGQGTTVTVSS
VL: DIVMTQTPLSSPVTFGQPASISCRSSQSLVHSDGNTYLSWLQQRPGQPPRLLIYKISNRFFGVPDRFSGSGAGTDFTLKISRVEAEDVGLYYCMQSTQFPLTFGGGTKVEIK
notes: as for B2
B8: anti-KDR monoclonal antibody 27A3 (antibody, V domains shown)
VH: QLQLQESGPGLVKPSETLSLTCTVSGGSISSRSDYWGWIRQPPGKGLEWIGTIYYSGDTYYNPSLKSRVTISVDTSKNQFSLKLSSVTAADTAVYYCARQQLVLYYFDYWGQGTLVTVSS
VL: EIVLTQSPGTLSLSPGERATLSCRASQSVSSSYLAWYQQKPGQAPRLLIYATSNRATGIPDRFSGSGSGTDFTLTISRLEPEDFAVYYCQQHGSSPPLTFGGGTKVEIK
notes: as for B2

How the values were obtained:
b-KDRIg4-7-myc-his = molecular target: T1, b-KDRIg4-7-myc-his (UniProt P35968 328-764, prefix 'b-' not explained; captured on neutravidin-coated plates (presumably biotinylated, site not stated)); assay: ELISA, b-KDRIg4-7-myc-his 1 ug/mL on neutravidin, hybridoma supernatant 1:5
T1 construct: domain: Ig4-7; The text calls it 'a KDR antibody containing the Ig4-7 domain'; it is read as the KDR fragment; Purified on a nickel column; also called Ig4-7 domain of KDR; soluble KDR Ig4-7; not shown: myc-his tag of the pSecTag vector
Procedure: To screen by binding to the Ig4-7 domain of KDR, plates were first coated with neutravadin (Pierce) at 4 μg/mL and incubated overnight at 4° C. The plates were then blocked and subsequently incubated with b-KDRIg4-7-myc-his at 1 μg/mL for one hour at room temperature. Candidate hybridoma supernatants (at 1:5 dilution) were transferred to the plates and incubated for one hour at room temperature. The plates were then washed and incubated with goat anti-human IgG Fc POD (at 1:4000 dilution) for one hour at room temperature.

[1] = molecular target: T2, human KDR (VEGFR2) on cells (human, UniProt P35968 20-1356); assay: cell-based or functional assay
[2] = molecular target: T2, human KDR (VEGFR2) on cells; assay: cell-based or functional assay; remark: listed apart in the source
[3] = molecular target: T3, soluble KDR (VEGF Receptor 2 D1-7, Cat. #676490, Calbiochem) (human, UniProt P35968 20-764); assay: ELISA, plate-coated soluble KDR 250 ng/mL, hybridoma supernatant 1:5
T3 construct: extracellular domain; Bought reagent; also called soluble human KDR; immobilized soluble KDR
Procedure: To screen by binding to immobilized soluble KDR, plates were coated with KDR (Calbiochem) at 250 ng/mL overnight at 4° C. After blocking and washing the coated plates, the candidate hybridoma supernatants (at 1:5 dilution) were transferred to the plates and incubated for one hour at room temperature. The plates were then washed and incubated with secondary antibody (at 1:4000 dilution) for one hour at room temperature.

[4] = molecular target: T2, human KDR (VEGFR2) on cells; assay: FACS on HUVEC, hybridoma supernatant 1:50
Procedure: HUVECs were seeded at 15,000 cells/well and incubated with 100 μL of sample supernatant (at 1:50 dilution) for one hour at 4° C. The positive control was goat anti-KDR antibody (R&D Systems, Inc.), and negative controls included irrelevant hybridoma supernatants at the same dilution. The cells were then washed and incubated with Cy5-conjugated goat anti-human antibody at 5 μg/mL and 7-Amino-Actinomycin D (7AAD) at 5 μg/mL for 15 minutes at 4° C. Bound KDR was detected using FACS analysis.

[5] = molecular target: T2, human KDR (VEGFR2) on cells; assay: cell-based or functional assay; remark: listed apart in the source
[6] = molecular target: T4, mouse KDR (Flk-1)/Fc (Cat. #443-KD/CF, R&D Systems) (mouse, UniProt P35918 20-762); assay: ELISA, plate-coated Flk-1/Fc 500 ng/mL, hybridoma supernatant 1:5
T4 construct: Bought reagent; also called mouse VEGFR2; KDR mouse ortholog; Fc part of the bought chimera not given
Procedure: The cross-reactivity of antibodies in the hybridoma supernatant was tested against KDR mouse ortholog (mouse VEGFR2, or Flk-1) and human VEGFR1 (Flt-1). Cross-reactivity was measured using an ELISA based assay.
After washing and blocking the plates, the antibody-containing supernatants were added (at 1:5 dilution) into the coated wells and incubated for one hour at room temperature. The plates were then incubated with mouse anti-human IgG 2, 3 and 4 and subsequently with goat anti-mouse IgG Fc POD, to detect and measure bound antibodies.

T2 sequence (P35968 20-1356): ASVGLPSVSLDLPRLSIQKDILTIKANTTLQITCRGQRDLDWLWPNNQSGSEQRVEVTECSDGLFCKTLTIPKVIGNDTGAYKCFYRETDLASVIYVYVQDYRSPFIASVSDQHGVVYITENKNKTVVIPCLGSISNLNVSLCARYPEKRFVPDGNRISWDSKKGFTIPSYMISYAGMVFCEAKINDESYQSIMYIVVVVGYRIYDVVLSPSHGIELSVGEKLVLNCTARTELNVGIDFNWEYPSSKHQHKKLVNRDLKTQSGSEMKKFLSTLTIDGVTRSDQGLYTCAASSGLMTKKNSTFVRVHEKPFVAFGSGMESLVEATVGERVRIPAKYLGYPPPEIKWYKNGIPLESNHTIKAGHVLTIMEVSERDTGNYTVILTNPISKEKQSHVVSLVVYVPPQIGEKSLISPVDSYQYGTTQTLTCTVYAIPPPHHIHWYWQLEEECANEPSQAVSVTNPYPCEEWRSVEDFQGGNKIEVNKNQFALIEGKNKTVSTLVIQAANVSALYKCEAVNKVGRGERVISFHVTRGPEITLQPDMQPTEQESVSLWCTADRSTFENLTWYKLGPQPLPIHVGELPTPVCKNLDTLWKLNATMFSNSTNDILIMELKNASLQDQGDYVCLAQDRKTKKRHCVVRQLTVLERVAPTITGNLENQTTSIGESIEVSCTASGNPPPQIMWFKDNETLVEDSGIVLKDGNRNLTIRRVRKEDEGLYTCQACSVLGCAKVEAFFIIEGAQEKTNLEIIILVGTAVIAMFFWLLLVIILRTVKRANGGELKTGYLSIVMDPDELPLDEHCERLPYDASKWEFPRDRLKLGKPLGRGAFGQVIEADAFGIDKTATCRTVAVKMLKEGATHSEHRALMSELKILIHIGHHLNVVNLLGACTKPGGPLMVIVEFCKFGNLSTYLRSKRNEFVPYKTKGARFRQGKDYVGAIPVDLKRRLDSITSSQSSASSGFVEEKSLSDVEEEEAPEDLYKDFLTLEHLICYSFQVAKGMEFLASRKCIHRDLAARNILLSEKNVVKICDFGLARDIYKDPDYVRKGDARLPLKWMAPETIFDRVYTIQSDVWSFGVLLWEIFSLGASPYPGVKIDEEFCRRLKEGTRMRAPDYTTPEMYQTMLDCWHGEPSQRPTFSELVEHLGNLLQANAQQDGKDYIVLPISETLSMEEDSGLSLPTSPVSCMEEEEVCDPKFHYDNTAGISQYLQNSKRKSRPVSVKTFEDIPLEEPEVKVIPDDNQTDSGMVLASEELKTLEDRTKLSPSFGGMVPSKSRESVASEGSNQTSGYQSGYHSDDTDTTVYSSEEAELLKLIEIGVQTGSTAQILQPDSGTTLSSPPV
T1 sequence (P35968 328-764): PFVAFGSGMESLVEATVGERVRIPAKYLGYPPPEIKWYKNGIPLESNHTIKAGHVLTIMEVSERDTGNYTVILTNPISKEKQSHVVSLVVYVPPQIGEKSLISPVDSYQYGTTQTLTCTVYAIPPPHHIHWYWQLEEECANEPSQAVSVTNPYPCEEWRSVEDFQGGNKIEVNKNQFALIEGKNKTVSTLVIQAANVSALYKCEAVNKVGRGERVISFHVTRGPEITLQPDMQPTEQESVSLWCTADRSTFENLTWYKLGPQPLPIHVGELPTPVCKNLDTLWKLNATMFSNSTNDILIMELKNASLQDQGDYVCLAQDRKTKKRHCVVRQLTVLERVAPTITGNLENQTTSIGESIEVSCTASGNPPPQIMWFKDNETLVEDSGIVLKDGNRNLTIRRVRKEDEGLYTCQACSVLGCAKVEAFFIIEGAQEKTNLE
T3 sequence (P35968 20-764): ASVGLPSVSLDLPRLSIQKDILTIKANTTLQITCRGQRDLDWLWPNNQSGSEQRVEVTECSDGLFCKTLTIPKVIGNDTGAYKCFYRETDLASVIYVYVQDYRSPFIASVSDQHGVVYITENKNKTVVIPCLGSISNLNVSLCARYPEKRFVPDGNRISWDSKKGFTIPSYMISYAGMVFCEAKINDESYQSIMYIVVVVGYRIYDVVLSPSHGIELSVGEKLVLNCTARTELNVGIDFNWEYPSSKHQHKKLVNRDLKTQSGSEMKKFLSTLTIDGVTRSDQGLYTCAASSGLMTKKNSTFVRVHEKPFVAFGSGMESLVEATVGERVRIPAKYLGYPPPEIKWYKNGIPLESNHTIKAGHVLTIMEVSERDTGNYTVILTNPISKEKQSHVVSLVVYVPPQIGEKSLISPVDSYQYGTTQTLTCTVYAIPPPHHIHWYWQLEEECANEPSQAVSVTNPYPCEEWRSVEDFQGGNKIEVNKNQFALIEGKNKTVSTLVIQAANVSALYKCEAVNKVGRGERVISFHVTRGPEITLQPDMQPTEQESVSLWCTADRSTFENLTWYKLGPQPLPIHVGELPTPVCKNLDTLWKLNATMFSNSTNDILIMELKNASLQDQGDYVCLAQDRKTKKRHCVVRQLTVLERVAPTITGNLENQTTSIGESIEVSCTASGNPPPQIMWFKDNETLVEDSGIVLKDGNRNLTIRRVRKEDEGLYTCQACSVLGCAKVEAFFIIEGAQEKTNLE
T4 sequence (P35918 20-762): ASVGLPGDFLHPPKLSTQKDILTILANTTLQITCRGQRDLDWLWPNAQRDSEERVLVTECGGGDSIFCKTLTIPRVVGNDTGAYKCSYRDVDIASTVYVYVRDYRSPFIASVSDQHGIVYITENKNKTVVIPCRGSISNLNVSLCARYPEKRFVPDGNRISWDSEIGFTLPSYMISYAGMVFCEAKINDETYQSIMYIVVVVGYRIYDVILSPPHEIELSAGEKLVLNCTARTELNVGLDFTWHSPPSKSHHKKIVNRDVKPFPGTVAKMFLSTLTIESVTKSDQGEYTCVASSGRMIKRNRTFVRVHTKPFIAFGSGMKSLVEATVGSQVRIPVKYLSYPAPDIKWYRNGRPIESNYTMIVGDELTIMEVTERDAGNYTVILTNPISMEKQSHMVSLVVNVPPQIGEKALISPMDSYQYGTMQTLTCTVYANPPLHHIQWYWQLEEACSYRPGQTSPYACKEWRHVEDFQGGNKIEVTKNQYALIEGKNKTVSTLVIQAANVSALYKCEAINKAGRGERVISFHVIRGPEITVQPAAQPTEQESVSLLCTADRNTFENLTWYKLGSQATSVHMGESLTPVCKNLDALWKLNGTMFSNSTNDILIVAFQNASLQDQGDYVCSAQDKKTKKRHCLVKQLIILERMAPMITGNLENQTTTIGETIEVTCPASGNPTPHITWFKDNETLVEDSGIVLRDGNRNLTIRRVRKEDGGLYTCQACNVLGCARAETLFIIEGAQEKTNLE

| Binder | b-KDRIg4-7 OD(450 nm) (b-KDRIg4-7-myc-his) [OD450] | % Inhibition of VEGF165-mediated pTyr Activity, Average [1] [%] | % Inhibition of VEGF165-mediated pTyr Activity, n = 1 [1] [%] | % Inhibition of VEGF165-mediated pTyr Activity, n = 2 [1] [%] | % Inhibition of VEGF165-mediated pTyr Activity, n = 3 [1] [%] | % Inhibition of VEGF-E-mediated pTyr Activity [2] [%] | KDR OD(450 nm) [3] [OD450] | FACS Geometric Mean [4] | HUVEC survival (n = 1) 1:10 dilution of supernatant (RLU) [5] [RLU] | HUVEC survival (n = 2) 1:20 dilution of supernatant (RLU) [5] [RLU] | OD (450 nm) [6] [OD450] |
| --- | --- | --- | --- | --- | --- | --- | --- | --- | --- | --- | --- |
| B1 | 0.935 | 72 | 85 | 65 | 68 | 70 | 0.62 | 18 | 10200 | 247 | – |
| B2 | 1.27 | 72 | 71 | 77 | 68 | 67 | 0.967 | 14 | 8870 | 2670 | – |
| B3 | 0.065 | 51 | 69 | 51 | 33 | 40 | 6 | 26 | 14100 | 2460 | 0.094 |
| B4 | 0.047 | 76 | 92 | 77 | 59 | 20 | 0.943 | 31 | 39500 | 21100 | – |
| B5 | – | 72 | 84 | 75 | 57 | 17 | 0.924 | 26 | 44800 | 8570 | 0.083 |
| B6 | – | 70 | 98 | 60 | 52 | 56 | 0.454 | 21 | 14800 | 1350 | 0.067 |
| B7 | – | 70 | 80 | 70 | 61 | 6 | 1.65 | 29 | 43800 | 10300 | 0.139 |
| B8 | 1.82 | 62 | 60 | 68 | 59 | 60 | 3.75 | 25 | 17300 | 4560 | – |
